Experimental data published in patent publication US20260167693A1 (ANGELES THERAPEUTICS, published 2026).
Where a chain is given by its changes, count along the chain named. Names and notes keep the numbering of the source.

T1: CD19-ECD-GGSG-NLuc-AcV5 (human)
T1 construct: also called CD19-GGSG-NLuc-AcV5; Flag-CD19-GGSG-NLuc-AcV5
T1 chain: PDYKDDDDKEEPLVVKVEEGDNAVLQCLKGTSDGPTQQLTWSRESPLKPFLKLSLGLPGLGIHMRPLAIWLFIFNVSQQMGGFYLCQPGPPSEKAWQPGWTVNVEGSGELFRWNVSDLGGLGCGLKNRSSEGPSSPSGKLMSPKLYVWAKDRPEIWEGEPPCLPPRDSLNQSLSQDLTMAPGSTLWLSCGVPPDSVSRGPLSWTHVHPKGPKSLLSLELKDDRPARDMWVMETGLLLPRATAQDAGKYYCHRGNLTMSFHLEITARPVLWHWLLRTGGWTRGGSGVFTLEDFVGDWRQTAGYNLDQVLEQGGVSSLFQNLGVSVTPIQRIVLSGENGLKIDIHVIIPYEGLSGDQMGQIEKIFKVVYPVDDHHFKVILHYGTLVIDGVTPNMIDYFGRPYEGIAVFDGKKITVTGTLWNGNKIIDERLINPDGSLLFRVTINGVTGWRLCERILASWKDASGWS

B1: CD8SP-FMC63-vL-V5-[hTCRb-KACIAH]-F-P2A-SP-FMC63-vH-Myc-[hTCRa-CSDVP]-F-F2A-PAC (010616-C01)[SEQ ID NO:1200] (other)
TCR beta: DIQMTQTTSSLSASLGDRVTISCRASQDISKYLNWYQQKPDGTVKLLIYHTSRLHSGVPSRFSGSGSGTDYSLTISNLEQEDIATYFCQQGNTLPYTFGGGTKLEITGKPIPNPLLGLDSTGSGEDLKNVFPPEVAVFEPSKAEIAHTQKATLVCLATGFYPDHVELSWWVNGKEVHSGVCTDPQPLKEQPALNDSRYCLSSRLRVSATFWQNPRNHFRCQVQFYGLSENDEWTQDRAKPVTQIVSAEAWGRADCGITSASYHQGVLSATILYEILLGKATLYAVLVSALVLMAMVKRKDSRG
TCR alpha: EVKLQESGPGLVAPSQSLSVTCTVSGVSLPDYGVSWIRQPPRKGLEWLGVIWGSETTYYNSALKSRLTIIKDNSKSQVFLKMNSLQTDDTAIYYCAKHYYYGGSYAMDYWGQGTSVTVSSEQKLISEEDGSGIQNPDPAVYQLRDSKSSDKSVCLFTDFDSQTNVSQSKDSDVYITDKCVLDMRSMDFKSNSAVAWSNKSDFACANAFNNSIIPEDTFFPSSDVPCDVKLVEKSFETDTNLNFQNLSVIGFRILLLKVAGFNLLMTLRLWSS
notes: Polyprotein PRT 3435; also called 102615-C08
B2: CD8SP-FMC63-vL-[hTCRb-S57C-opt]-F-P2A-SP-FMC63-vH-Myc-[hTCRa-CSDVP]-F-F2A-PAC (other)
TCR beta: DIQMTQTTSSLSASLGDRVTISCRASQDISKYLNWYQQKPDGTVKLLIYHTSRLHSGVPSRFSGSGSGTDYSLTISNLEQEDIATYFCQQGNTLPYTFGGGTKLEITEDLKNVFPPEVAVFEPSEAEISHTQKATLVCLATGFYPDHVELSWWVNGKEVHSGVCTDPQPLKEQPALNDSRYCLSSRLRVSATFWQNPRNHFRCQVQFYGLSENDEWTQDRAKPVTQIVSAEAWGRADCGFTSESYQQGVLSATILYEILLGKATLYAVLVSALVLMAMVKRKDSRG
TCR alpha: B1 TCR alpha
notes: Polyprotein PRT 12438; also called 110916-P02
B3: CD8SP-FMC63-vL-V5-[hTCRb-KACIAH]-F-P2A-SP-FMC63-vH-Myc4-[hTCRα-SD]-F-F2A-PAC (other)
TCR beta: B1 TCR beta
TCR alpha: EVKLQESGPGLVAPSQSLSVTCTVSGVSLPDYGVSWIRQPPRKGLEWLGVIWGSETTYYNSALKSRLTIIKDNSKSQVFLKMNSLQTDDTAIYYCAKHYYYGGSYAMDYWGQGTSVTVSSEQKLISEEDLGSGIQNPDPAVYQLRDSKSSDKSVCLFTDFDSQTNVSQSKDSDVYITDKTVLDMRSMDFKSNSAVAWSNKSDFACANAFNNSIIPEDTFFPSSDSSCDVKLVEKSFETDTNLNFQNLSVIGFRILLLKVAGFNLLMTLRLWSS
notes: Polyprotein PRT 12444; also called 120916-R01
B4: CD8SP-FMC63-vL-GSG-hTCRb-RAC-F-P2A-SP-FMC63-vH-Myc-[hTCRa-CSDVP]-F-F2A-PAC (other)
TCR beta: DIQMTQTTSSLSASLGDRVTISCRASQDISKYLNWYQQKPDGTVKLLIYHTSRLHSGVPSRFSGSGSGTDYSLTISNLEQEDIATYFCQQGNTLPYTFGGGTKLEITGSGEDLKNVFPPEVAVFEPSRAEIAHTQKATLVCLATGFYPDHVELSWWVNGKEVHSGVCTDPQPLKEQPALNDSRYCLSSRLRVSATFWQNPRNHFRCQVQFYGLSENDEWTQDRAKPVTQIVSAEAWGRADCGFTSESYQQGVLSATILYEILLGKATLYAVLVSALVLMAMVKRKDSRG
TCR alpha: B1 TCR alpha
notes: Polyprotein PRT 12447; also called 121516-W05
B5: CD8SP-FMC63-vL-V5-[hTCRb-KACIAH]-F-P2A-SP-FMC63-vH-[GSG-hTCRa-T48C-opt]-F-F2A-PAC (other)
TCR beta: B1 TCR beta
TCR alpha: EVKLQESGPGLVAPSQSLSVTCTVSGVSLPDYGVSWIRQPPRKGLEWLGVIWGSETTYYNSALKSRLTIIKDNSKSQVFLKMNSLQTDDTAIYYCAKHYYYGGSYAMDYWGQGTSVTVSSGSGIQNPDPAVYQLRDSKSSDKSVCLFTDFDSQTNVSQSKDSDVYITDKCVLDMRSMDFKSNSAVAWSNKSDFACANAFNNSIIPEDTFFPSPESSCDVKLVEKSFETDTNLNFQNLSVIGFRILLLKVAGFNLLMTLRLWSS
notes: Polyprotein PRT 12436; also called 110916-M04
B6: CD8SP-FMC63-vL-[hTCRa-CSDVP]-F-F2A-SP-FMC63-vH-[hTCRb-KACIAH]-F-P2A-PAC (other)
TCR alpha: DIQMTQTTSSLSASLGDRVTISCRASQDISKYLNWYQQKPDGTVKLLIYHTSRLHSGVPSRFSGSGSGTDYSLTISNLEQEDIATYFCQQGNTLPYTFGGGTKLEITIQNPDPAVYQLRDSKSSDKSVCLFTDFDSQTNVSQSKDSDVYITDKCVLDMRSMDFKSNSAVAWSNKSDFACANAFNNSIIPEDTFFPSSDVPCDVKLVEKSFETDTNLNFQNLSVIGFRILLLKVAGFNLLMTLRLWSS
TCR beta: EVKLQESGPGLVAPSQSLSVTCTVSGVSLPDYGVSWIRQPPRKGLEWLGVIWGSETTYYNSALKSRLTIIKDNSKSQVFLKMNSLQTDDTAIYYCAKHYYYGGSYAMDYWGQGTSVTVSSEDLKNVFPPEVAVFEPSKAEIAHTQKATLVCLATGFYPDHVELSWWVNGKEVHSGVCTDPQPLKEQPALNDSRYCLSSRLRVSATFWQNPRNHFRCQVQFYGLSENDEWTQDRAKPVTQIVSAEAWGRADCGITSASYHQGVLSATILYEILLGKATLYAVLVSALVLMAMVKRKDSRG
notes: Polyprotein PRT 12469; also called 022217-F01
B7: CD8SP-FMC63-vL-[hTCRb-R18A22]-F-P2A-SP-FMC63-vH-Myc4-[hTCRa-SD]-F-F2A-PAC (other)
TCR beta: B2 TCR beta with E125R, S129A, C164S
TCR alpha: B3 TCR alpha
notes: Polyprotein PRT 12439; also called 112116-R08
B8: CD8SP-FMC63-vL-Myc2-[hTCRb-R18A22]-F-P2A-SP-FMC63-vH-Myc4-[hTCRa-SD]-F-F2A-PAC (other)
TCR beta: DIQMTQTTSSLSASLGDRVTISCRASQDISKYLNWYQQKPDGTVKLLIYHTSRLHSGVPSRFSGSGSGTDYSLTISNLEQEDIATYFCQQGNTLPYTFGGGTKLEITEQKLISEEDLGSGEDLKNVFPPEVAVFEPSRAEIAHTQKATLVCLATGFYPDHVELSWWVNGKEVHSGVSTDPQPLKEQPALNDSRYCLSSRLRVSATFWQNPRNHFRCQVQFYGLSENDEWTQDRAKPVTQIVSAEAWGRADCGFTSESYQQGVLSATILYEILLGKATLYAVLVSALVLMAMVKRKDSRG
TCR alpha: B3 TCR alpha
notes: Polyprotein PRT 12440; also called 112116-S08
B9: CD8SP-FMC63-vL-[hTCRb-RC]-F-P2A-SP-FMC63-vH-[hTCRa-CSDVP]-F-F2A-PAC (other)
TCR beta: B2 TCR beta with E125R
TCR alpha: EVKLQESGPGLVAPSQSLSVTCTVSGVSLPDYGVSWIRQPPRKGLEWLGVIWGSETTYYNSALKSRLTIIKDNSKSQVFLKMNSLQTDDTAIYYCAKHYYYGGSYAMDYWGQGTSVTVSSIQNPDPAVYQLRDSKSSDKSVCLFTDFDSQTNVSQSKDSDVYITDKCVLDMRSMDFKSNSAVAWSNKSDFACANAFNNSIIPEDTFFPSSDVPCDVKLVEKSFETDTNLNFQNLSVIGFRILLLKVAGFNLLMTLRLWSS
notes: Polyprotein PRT 12445; also called 121516-U07
B10: CD8SP-FMC63-vL-[hTCRb-R18]-F-P2A-SP-FMC63-vH-Myc4-[hTCRa-SD]-F-F2A-PAC (other)
TCR beta: B2 TCR beta with E125R, C164S
TCR alpha: B3 TCR alpha
notes: Polyprotein PRT 12442; also called 112116-U08
B11: CD8SP-FMC63-vL-[hTCRb-KACIAH]-F-P2A-SP-FMC63-vH-[hTCRa-CSDVP]-F-F2A-PAC (other)
TCR beta: B2 TCR beta with E125K, S129A, F240I, E243A, Q246H
TCR alpha: B9 TCR alpha
notes: Polyprotein PRT 12468; also called 022217-E01
B12: CD8SP-FMC63-vL-PG4SP-v2-[hTCRb-KACIAH]-F-P2A-SP-FMC63-vH-PG4SP-[hTCRa-CSDVP]-F-F2A-PAC (other)
TCR beta: DIQMTQTTSSLSASLGDRVTISCRASQDISKYLNWYQQKPDGTVKLLIYHTSRLHSGVPSRFSGSGSGTDYSLTISNLEQEDIATYFCQQGNTLPYTFGGGTKLEITPGGGGSPEDLKNVFPPEVAVFEPSKAEIAHTQKATLVCLATGFYPDHVELSWWVNGKEVHSGVCTDPQPLKEQPALNDSRYCLSSRLRVSATFWQNPRNHFRCQVQFYGLSENDEWTQDRAKPVTQIVSAEAWGRADCGITSASYHQGVLSATILYEILLGKATLYAVLVSALVLMAMVKRKDSRG
TCR alpha: EVKLQESGPGLVAPSQSLSVTCTVSGVSLPDYGVSWIRQPPRKGLEWLGVIWGSETTYYNSALKSRLTIIKDNSKSQVFLKMNSLQTDDTAIYYCAKHYYYGGSYAMDYWGQGTSVTVSSPGGGGSPIQNPDPAVYQLRDSKSSDKSVCLFTDFDSQTNVSQSKDSDVYITDKCVLDMRSMDFKSNSAVAWSNKSDFACANAFNNSIIPEDTFFPSSDVPCDVKLVEKSFETDTNLNFQNLSVIGFRILLLKVAGFNLLMTLRLWSS
notes: Polyprotein PRT 12433; also called 040617-A09
B13: CD8SP-FMC63-vL-E-Coil-[hTCRb-KACIAH]-F-P2A-SP-FMC63-vH-K-coil-[hTCRa-CSDVP]-F-F2A-PAC (other)
TCR beta: B12 TCR beta with P108E, G109V, G110A, G111A, G112L, S113E, P114R
TCR alpha: B12 TCR alpha with P121R, G122V, G123A, G124A, G125L, S126K, P127E
notes: Polyprotein PRT 12434; also called 040617-B09

Biological target: T1, CD19-ECD-GGSG-NLuc-AcV5
Test: NLuc binding assay, SIR on Jurkat-NFAT-GFP cells

CD19-GGSG-NLuc (RLU)	Binder
6840	B1
2180	B2
2660	B3
17200	B4
20500	B5
21300	B6
7570	B7
4480	B8
12600	B9
3910	B10
9760	B11
53700	B12
35700	B13
